Five molecules from US20130064788A1 (ELEVEN BIOTHERAPEUTICS, published 2013) can be followed below.

First the molecules themselves.
T1: pre-assembled IL-17RC-IL-17A complex (IL-17A captured by immobilised IL-17RC) (human, UniProt Q8NAC3 21-538; Q16552 25-155, C-terminal biotin on BirA tag)
T1 construct: One receptor and one IL-17A dimer on the SPR chip; also called existing IL-17RC-IL-17A complex
T1 sequence 1: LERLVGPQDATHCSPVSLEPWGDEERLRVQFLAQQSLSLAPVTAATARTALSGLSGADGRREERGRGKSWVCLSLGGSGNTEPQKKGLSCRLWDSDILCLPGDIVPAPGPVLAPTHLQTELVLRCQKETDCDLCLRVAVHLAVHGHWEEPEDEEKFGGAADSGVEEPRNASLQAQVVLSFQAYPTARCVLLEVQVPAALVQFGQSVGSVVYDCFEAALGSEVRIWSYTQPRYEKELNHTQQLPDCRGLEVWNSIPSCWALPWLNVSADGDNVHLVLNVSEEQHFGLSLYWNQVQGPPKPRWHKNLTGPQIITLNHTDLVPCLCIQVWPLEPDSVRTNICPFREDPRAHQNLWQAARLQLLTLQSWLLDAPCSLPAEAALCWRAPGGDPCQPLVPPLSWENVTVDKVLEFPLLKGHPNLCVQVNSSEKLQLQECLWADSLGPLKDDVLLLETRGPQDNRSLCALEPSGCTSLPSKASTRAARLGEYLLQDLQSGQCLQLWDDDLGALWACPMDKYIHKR
T1 sequence 2: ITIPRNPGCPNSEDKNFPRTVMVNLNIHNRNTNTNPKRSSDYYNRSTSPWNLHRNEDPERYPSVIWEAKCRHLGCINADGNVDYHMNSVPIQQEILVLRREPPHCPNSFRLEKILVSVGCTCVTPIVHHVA

T2: pre-assembled IL-17RB-IL-25 complex (IL-25 captured by immobilised IL-17RB) (human, UniProt Q9NRM6 18-292; Q9H293 33-177, C-terminal biotin on BirA tag)
T2 construct: One receptor and one IL-25 dimer on the SPR chip
T2 sequence 1: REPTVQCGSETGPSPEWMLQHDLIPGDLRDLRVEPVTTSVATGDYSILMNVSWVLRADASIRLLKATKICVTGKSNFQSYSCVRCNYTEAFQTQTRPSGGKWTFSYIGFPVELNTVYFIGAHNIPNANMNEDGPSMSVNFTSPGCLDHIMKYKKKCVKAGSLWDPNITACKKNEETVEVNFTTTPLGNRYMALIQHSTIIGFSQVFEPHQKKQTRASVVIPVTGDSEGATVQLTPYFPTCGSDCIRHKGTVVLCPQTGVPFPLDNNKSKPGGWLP
T2 sequence 2: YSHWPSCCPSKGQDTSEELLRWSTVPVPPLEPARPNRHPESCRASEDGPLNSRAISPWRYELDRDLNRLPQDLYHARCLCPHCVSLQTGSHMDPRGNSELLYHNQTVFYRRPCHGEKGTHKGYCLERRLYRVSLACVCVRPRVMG

T3: human IL-17RA extracellular domain (ECD) (human, UniProt Q96F46 32-317)
T3 construct: For SPR it was made with and without a C-terminal BirA ligase tag: the biotinylated form was immobilised and the other was injected; also called IL-17RA ECD; IL-17RA ectodomain
T3 sequence: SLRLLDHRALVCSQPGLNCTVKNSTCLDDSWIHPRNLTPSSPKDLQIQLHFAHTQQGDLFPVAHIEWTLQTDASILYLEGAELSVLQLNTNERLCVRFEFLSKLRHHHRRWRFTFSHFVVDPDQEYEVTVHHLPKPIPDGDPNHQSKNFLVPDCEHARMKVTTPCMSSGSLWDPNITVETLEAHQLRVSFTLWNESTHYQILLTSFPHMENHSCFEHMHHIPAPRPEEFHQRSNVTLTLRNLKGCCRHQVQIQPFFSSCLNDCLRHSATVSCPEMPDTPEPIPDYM

B1: IL-17RC extracellular domain (receptor)
chain: T1 sequence 1
notes: Expressed in 293S GnTI- cells with and without a C-terminal BirA tag; An additional C-terminal Fc tag was cleaved by 3C protease
B2: IL-17RB extracellular domain (receptor)
chain: T2 sequence 1
notes: Expressed with and without a C-terminal BirA tag
B3: IL-17F homodimer (ligand, not shown: small tags and cut ends)
chain: RKIPKVGHTFFQKPESCPPVPGGSMKLDIGIINENQRVSMSRNIESRSTSPWNYTVTWDPNRYPSEVVQAQCRNLGCINAQGKEDISMNSVPIQQETLVVRRKHQGCSVSFQLEKVLVTVGCTCVTPVIHHVQ
notes: Printed as full length IL-17F with a C-terminal hexa-His tag, secreted by High Five insect cells; It is a disulfide-linked homodimer; also called IL-17F/F
B4: mutant single-chain IL-17A (R47E, S65K subunit - (G4S)6 linker - N89A, C-terminally truncated subunit - His tag) (designed binder)
chain: GITIPRNPGCPNSEDKNFPRTVMVNLNIHNRNTNTNPKRSSDYYNESTSPWNLHRNEDPERYPKVIWEAKCRHLGCINADGNVDYHMNSVPIQQEILVLRREPPHCPNSFRLEKILVSVGCTCVTPIVHHVASGGGGSGGGGSGGGGSGGGGSGGGGSGGGGSGITIPRNPGCPNSEDKNFPRTVMVNLNIHNRNTNTNPKRSSDYYNRSTSPWNLHRNEDPERYPSVIWEAKCRHLGCINADGNVDYHMASVPIQQEILVLRREPPHCPNSFRLEKILVSVGCTCVTPASHHHHHH
notes: also called sc17A-DN; mutant single-chain IL-17A protein
B5: IL-25 (IL-17E) (ligand)
chain: T2 sequence 2
notes: Expressed by High Five cells with a C-terminal hexa-His tag; It is treated as a dimeric cytokine in the SPR scheme; not shown: C-terminal hexa-His tag

Where only a bound is given, the exact number is not on record here.

The target in assay [1] is T1, pre-assembled IL-17RC-IL-17A complex …. As to the kind of experiment: SPR; second receptor injected over IL-17A captured by immobilised IL-17RC. The text has this: (§1) Whilst others have reported the binding affinities of IL-17RA and IL-17RC for IL-17A and IL-17F (7, 22), we considered it pertinent to assess the binding affinity of the second receptor-binding site. The strategy was to immobilize one receptor on the SPR chip at a low coupling density in order to minimize possible homo-dimerization (e.g. cross-linking) of the receptors on the chip. The dimeric IL-17 cytokine was then captured by this receptor so that each receptor would be bound to one dimeric IL-17 ligand, leaving an exposed and accessible second receptor-binding site. The second receptor was subsequently passed over the preformed receptor-cytokine complexes to measure the affinity of the second receptor-binding event. In this fashion, the complex was assembled in a stepwise manner and each of the binding affinities was measured (FIG. 3).
(§2) Binding affinities were calculated via surface plasmon resonance (SPR) on a BIACORE® T100 (GE Healthcare). C-terminally biotinylated IL-17 receptors were coupled to immobilized streptavidin on either an SA or CM4-sensor chip (GE Healthcare). An irrelevant, biotinylated protein was captured at equivalent immobilization densities to control flow cells. […] Data was analyzed using BIACORE® T100 evaluation software Version 2.0 (GE Healthcare). […]
For orientation: Surface plasmon resonance follows binding to a sensor surface in real time, without labels.

Assay [2] concerns the target T2, pre-assembled IL-17RB-IL-25 complex …. Nature of the assay: SPR, Biacore T100; second receptor injected over IL-25 captured by immobilised IL-17RB. As to the method:
(§3) IL-17RA has been implicated in IL-17E (also known as IL-25) signaling together with IL-17RB (23). IL-25 promotes Th2 inflammatory responses and shares approximately ˜20% identity with IL-17A and IL-17F. […] We hypothesized that IL-17RA may only bind IL-25 once IL-25 is captured by IL-17RB. To test this hypothesis, we immobilized IL-17RB on an SPR chip, captured IL-25 and measured the affinity of IL-17RA for the IL-17RB-IL-25 complex. […] At concentrations up to 50 μM, no interaction could be observed between IL-17RA and IL-25, or between the IL-17RB-IL-25 complex and a second IL-17RB molecule.
as §2, with “cells. To measure the second receptor binding interaction, the cytokine was first captured to the immobilized receptor, followed by the second receptor injection. Low coupling densities (200-400 RU) and excess cytokine concentrations were used to optimize the number of cytokine homodimers bound to a single receptor.” for “cells.”

For assay [3], the target named is B1. As to the kind of experiment: SPR, Biacore T100; biotinylated receptor on streptavidin chip, cytokine injected.
From the text: as §1, §2

The target of assay [4] is T3, human IL-17RA extracellular domain (ECD). The assay is described as above.
From the text: as §1, §2

Assay [5] shares this target. Nature of the assay: plate binding assay to the soluble extracellular domain of IL-17RA.
The target is the same in assay [6]. As to the kind of experiment: SPR, Biacore T100. As to the method: as §3
as §2, with “cells. To measure the second receptor binding interaction, the cytokine was first captured to the immobilized receptor, followed by the second receptor injection. Low coupling densities (200-400 RU) and excess cytokine concentrations were used to optimize the number of cytokine homodimers bound to a single receptor.” for “cells.”

As a reminder, the Kd is the constant that tells how readily two partners part at equilibrium. A high value points to lower affinity. On to B1, for which the Kd in assay [1] was 8000 nM.

Take B2: the binding result in assay [2] is listed as “no binding (tested: up to 50 µM)”.

Consider B3, for which the Kd in assay [3] turned out to be 4.4 nM; in assay [4], 292 nM.

Turning to B4, in assay [5], the “affinity relative to wild-type IL-17A (factor)” value is at most 4 fold.

With B5, the binding result in assay [6] is recorded as “no binding (tested: up to 50 µM)”.
